Reference: IntAct's records for PubMed 19122675

B1: Calmodulin-binding transcription activator 3 (Arabidopsis thaliana (Mouse-ear cress)), Q8GSA7 (parent)
chain: MAEARRFSPVHELDVGQILSEARHRWLRPPEICEILQNYQRFQISTEPPTTPSSGSVFMFDRKVLRYFRKDGHNWRKKKDGKTVKEAHERLKAGSVDVLHCYYAHGQDNENFQRRSYWLLQEELSHIVFVHYLEVKGSRVSTSFNRMQRTEDAARSPQETGDALTSEHDGYASCSFNQNDHSNHSQTTDSASVNGFHSPELEDAESAYNQHGSSTAYSHQELQQPATGGNLTGFDPYYQISLTPRDSYQKELRTIPVTDSSIMVDKSKTINSPGVTNGLKNRKSIDSQTWEEILGNCGSGVEALPLQPNSEHEVLDQILESSFTMQDFASLQESMVKSQNQELNSGLTSDRTVWFQGQDMELNAISNLASNEKAPYLSTMKQHLLHGALGEEGLKKMDSFNRWMSKELGDVGVIADANESFTQSSSRTYWEEVESEDGSNGHNSRRDMDGYVMSPSLSKEQLFSINDFSPSWAYVGCEVVVFVTGKFLKTREETEIGEWSCMFGQTEVPADVISNGILQCVAPMHEAGRVPFYVTCSNRLACSEVREFEYKVAESQVFDREADDESTIDILEARFVKLLCSKSENTSPVSGNDSDLSQLSEKISLLLFENDDQLDQMLMNEISQENMKNNLLQEFLKESLHSWLLQKIAEGGKGPSVLDEGGQGVLHFAASLGYNWALEPTIIAGVSVDFRDVNGWTALHWAAFFGRERIIGSLIALGAAPGTLTDPNPDFPSGSTPSDLAYANGHKGIAGYLSEYALRAHVSLLSLNDKNAETVEMAPSPSSSSLTDSLTAVRNATQAAARIHQVFRAQSFQKKQLKEFGDKKLGMSEERALSMLAPKTHKSGRAHSDDSVQAAAIRIQNKFRGYKGRKDYLITRQRIIKIQAHVRGYQFRKNYRKIIWSVGVLEKVILRWRRKGAGLRGFKSEALVEKMQDGTEKEEDDDFFKQGRKQTEDRLQKALARVKSMVQYPEARDQYRRLLNVVNDIQESKVEKALENSEATCFDDDDDLIDIEALLEDDDTLMLPMSSSLWTS

Variants of: B1
Conditions: with calm5_soltu PCM5, Q7DMN9

effect of a mutation on the interaction	Variant
disrupting interaction	K907E
